{
  "source": "patent US20130089499A1",
  "about": "(NATIONAL RESEARCH COUNCIL OF CANADA, published 2013)",
  "molecules": {"B1": {"name": "N-His (TβRII)^2 (designed binder)", "chain": "APMAEGGGQNHHHHHHHHGGSFNPRIPPHVQKSVNNDMIVTDNNGAVKFPQLCKFCDVRFSTCDNQKSCMSNCSITSICEKPQEVCVAVWRKNDENITLETVCHDPKLPYHDFILEDAASPKCIMKEKKKPGETFFMCSCSSDECNDNIIFSEEYNTSNPDIPPHVQKSVNNDMIVTDNNGAVKFPQLCKFCDVRFSTCDNQKSCMSNCSITSICEKPQEVCVAVWRKNDENITLETVCHDPKLPYHDFILEDAASPKCIMKEKKKPGETFFMCSCSSDECNDNIIFSEEYNTSNPD", "notes": "Two human TβRII ectodomains in tandem with the native 35-residue linker (IPP restored), an N-terminal 8xHis tag and a thrombin site; also called modified N-His (TβRII)^2; bivalent N-His (TβRII)^2"}, "B2": {"name": "N-His TβRII monomer (receptor)", "chain": "APMAEGGGQNHHHHHHHHGGSFNPRIPPHVQKSVNNDMIVTDNNGAVKFPQLCKFCDVRFSTCDNQKSCMSNCSITSICEKPQEVCVAVWRKNDENITLETVCHDPKLPYHDFILEDAASPKCIMKEKKKPGETFFMCSCSSDECNDNIIFSEEYNTSNPD", "notes": "Single TβRII ectodomain with an N-terminal His tag, produced in 293 cells; also called monomeric N-His TβRII; N-His TβRII (293 cells)"}, "B3": {"name": "N-His (TβRIIb)^2 (designed binder)", "chain": "APMAEGGGQNHHHHHHHHGGSFNPRIPPHVQKSVNNDMIVTDNNGAVKFPQLCKFCDVRFSTCDNQKSCMSNCSITSICEKPQEVCVAVWRKNDENITLETVCHDPKLPYHDFILEDAASPKCIMKEKKKPGETFFMCSCSSDECNDNIIFSEEYNTSNPDIPPHVQKSDVEMEAQKDEIICPSCNRTAHPLRHINNDMIVTDNNGAVKFPQLCKFCDVRFSTCDNQKSCMSNCSITSICEKPQEVCVAVWRKNDENITLETVCHDPKLPYHDFILEDAASPKCIMKEKKKPGETFFMCSCSSDECNDNIIFSEEYNTSNPD", "notes": "TβRII ectodomain followed by a TβRIIb ectodomain, giving a 60-residue linker, with an N-terminal His tag; also called (TβRII)^2 trap having a 60 amino acid linker"}, "B4": {"name": "Prototype (TβRII)^2 (designed binder)", "chain": "TIPPEQKLISEEDLLHVQKSVNNDMIVTDNNGAVKFPQLCKFCDVRFSTCDNQKSCMSNCSITSICEKPQEVCVAVWRKNDENITLETVCHDPKLPYHDFILEDAASPKCIMKEKKKPGETFFMCSCSSDECNDNIIFSEEYNTSNPDGGRHVQKSVNNDMIVTDNNGAVKFPQLCKFCDVRFSTCDNQKSCMSNCSITSICEKPQEVCVAVWRKNDENITLETVCHDPKLPYHDFILEDAASPKCIMKEKKKPGETFFMCSCSSDECNDNIIFSEEYNTSNPDHHHHHH"}, "B5": {"name": "(ActRIIB)^2 (designed binder)", "chain": "SGSEQKLISEEDLLGRGEAETRECIYYNANWELERTNQSGLERCEGEQDKRLHCYASWRNSSGTIELVKKGCWLDDFNCYDRQECVATEENPQVYFCCCEGNFCNERFTHLPEAGGPEVTYEPPPTAPTSGRGEAETRECIYYNANWELERTNQSGLERCEGEQDKRLHCYASWRNSSGTIELVKKGCWLDDFNCYDRQECVATEENPQVYFCCCEGNFCNERFTHLPEAGGPEVTYEPPPTAPTHHHHHH"}},
  "key": {"human myostatin (GDF8)": {"molecular_target": "human myostatin (GDF8) (human, UniProt O14793 267-375)", "assay": "cell-based or functional assay"}, "TGF-β1 [1]": {"molecular_target": "T1, TGF-β1 (UniProt P01137 279-390)", "assay": "SPR indirect binding assay: binder titrated against 5 nM TGF-β1, free TGF-β1 measured on the 1D11 surface", "method": "(§1) SPR data was generated using a Biacore 3000 instrument (G.E. Healthcare Inc.) using HBS as running buffer. […] A twenty-fold stock concentration of TGF-β (100 nM in 10 mM acetic acid) was used. […] Blank injection samples were made from 10 μl 10 mM acetic acid mixed with 190 uL HBS. […] All sensogram analysis was carried out using Biacore BiaEvaluation software v4.1 (G.E. Healthcare Inc.)."}, "TGF-β1 [2]": {"molecular_target": "T1, TGF-β1", "assay": "SPR (Biacore) solution competition: trap coinjected with 5 nM TGF-β1 over immobilised 1D11 anti-TGF-β antibody; plateau response measures free TGF-β1"}, "TGF-β1 [3]": {"molecular_target": "T1, TGF-β1", "assay": "cell-based or functional assay"}, "TGF-β2": {"molecular_target": "T2, TGF-β2 (UniProt P61812 303-414)", "T2 sequence (looked up)": "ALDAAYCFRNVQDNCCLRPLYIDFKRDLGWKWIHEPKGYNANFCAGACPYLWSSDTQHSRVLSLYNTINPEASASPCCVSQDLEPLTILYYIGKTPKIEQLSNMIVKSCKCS", "assay": "SPR (Biacore), 100 nM injected over immobilised TGF-β2"}, "TGF-β1 [4]": {"molecular_target": "T1, TGF-β1", "assay": "SPR (Biacore) solution competition: binder pre-incubated with 5 nM TGF-β1, injected over immobilised 1D11 anti-TGF-β antibody; plateau response measures free TGF-β1", "method": "as §1"}, "TGF-β1 or -β3": {"molecular_target": "TGF-β1 or -β3", "assay": "SPR (Biacore) solution competition: binder pre-incubated with 5 nM TGF-β (β1 or β3, isoform not named on the sheet), injected over immobilised 1D11 anti-TGF-β antibody; plateau response measures free TGF-β"}},
  "data": [
    {"molecule": "ActRIIB monomer (receptor)", "values": [
      {"measurement": "IC50, neutralization of myostatin in A204 cells with (CAGA)12-luciferase reporter", "setting": "human myostatin (GDF8)", "value": 0.38, "unit": "nM"}
    ]},
    {"molecule": "B1", "values": [
      {"measurement": "IC50", "setting": "TGF-β1 [1]", "value": 1.1, "unit": "nM"},
      {"measurement": "IC50", "setting": "TGF-β1 [2]", "value": 1.4, "unit": "nM"},
      {"measurement": "IC50, neutralization assay in Mv1Lu luciferase reporter cells", "setting": "TGF-β1 [3]", "value": "< 1", "unit": "nM"},
      {"measurement": "IC50, neutralization of TGFβ1 (Mv1Lu luciferase reporter cells)", "setting": "TGF-β1 [3]", "value": 0.16, "unit": "nM"}
    ]},
    {"molecule": "B2", "values": [
      {"measurement": "binding result", "setting": "TGF-β2", "value": "no binding (tested: 100 nM)"},
      {"measurement": "fold higher IC50 than N-His (TβRII)^2", "setting": "TGF-β1 [1]", "value": "~8", "unit": "fold"},
      {"measurement": "IC50", "setting": "TGF-β1 [4]", "value": 8.1, "unit": "nM"}
    ]},
    {"molecule": "B3", "values": [
      {"measurement": "IC50", "setting": "TGF-β1 [2]", "value": 0.6, "unit": "nM"},
      {"measurement": "IC50, neutralization of TGFβ1 (Mv1Lu luciferase reporter cells)", "setting": "TGF-β1 [3]", "value": 0.04, "unit": "nM"},
      {"measurement": "fold more potent than N-His (TβRII)^2 in neutralization of TGFβ1", "setting": "TGF-β1 [3]", "value": 4, "unit": "fold"}
    ]},
    {"molecule": "B4", "values": [
      {"measurement": "IC50, inhibition of TGF-β signaling in Mv1Lu luciferase reporter cells", "setting": "TGF-β1 [3]", "value": 0.58, "unit": "nM"},
      {"measurement": "IC50", "setting": "TGF-β1 or -β3", "value": 7.6, "unit": "nM"}
    ]},
    {"molecule": "B5", "values": [
      {"measurement": "IC50, neutralization of myostatin in A204 cells with (CAGA)12-luciferase reporter", "setting": "human myostatin (GDF8)", "value": 0.1, "unit": "nM"},
      {"measurement": "fold more potent than dimeric ActRIIb-Fc in neutralization of myostatin", "setting": "human myostatin (GDF8)", "value": 10, "unit": "fold"}
    ]}
  ]
}
